# From patent US7709240B2, “AMP deaminase originating streptomyces and utilization thereof” (Amano Enzyme Inc., priority 2004, dated 2010)
# Several values for one entry are separate records, joined by “and”; a condition that tells them apart may be missing. Identical values can stand only once. Entries after “also recorded” stand apart in the source; their conditions may differ.
# B1: AMP deaminase derived from Streptomyces murinus: thermostable AMP deaminase enzyme produced by Streptomyces murinus IFO14802; amino acid sequence SEQ ID NO: 1 (protein, listed as Streptomyces murinus)
# chain: APPPRQATAAEARTDAYLRSVKDRPAALRAFFRQLPKGGDLHNHLSGAVNTDYLIELAAEDGLCIDATMTAVPSPCGPGTRPAADARTDRAFHDAIVRAWSMQDFPPDENGHDHFFDTFGKFGEVTWRHRGKLLAQVADTVVANNQSYLETMVTPASDGAKQLADQVGWDADLTALHRKLAAGGKLDKLVADARKEADDGDAEFRATEHCGTAKARPACGLTVRWISQASRGSSPVRVFTQLDLGMRLAEADSRFVAVNLVQPEDWDSSLENYSLQMRMVGYLRTVYPKAHVTLHAGELWPGLVKPEALKFHIAEAVDIAHTQRVGHGVDLVHEDNWQRTARTMAARQIAVEVPFSSNAQILGVKGAEHPFTTYRRYGVPVVLATDDPGVSRIDISHEYQYAAATYGLGYPELKDLARASLQYAFLPGASLWQGNPTAQGYHPVAACRAERPGQPVHSAACRRLLDGSARARLEWRQEAAFAAFERAHARG
# Legend:
# [1] = Contaminated phosphatase activity; type: biochemical; conditions: 37° C., pH 5.6
# Procedure: To 1.5 ml of solution obtained by mixing 0.025M 5′IMP-2Na and 0.036M barbital sodium-hydrochloric acid buffer solution (pH 5.6) at the ratio of 1:2, 0.5 ml of sample solution was added so as to obtain a reaction solution, which was reacted at 37° C. for 30 minutes. After the reaction was completed, 200 μl of the solution was taken out, and 5 ml of 6% perchloric acid solution was added so as to stop the reaction. Amidol solution (0.05M, 0.25 ml) was added and mixed, followed by adding and mixing 0.25 ml of 0.067 M ammonium molybdate solution, and further adding and mixing 0.25 ml of water, which was allowed to stand in flowing water for 15 minutes. Then, OD265 was measured. A value similarly measured at the reaction time of 0 minute was defined as a blank. Under the above-mentioned conditions, a case where an absorbance difference is reduced by 0.001 during 30 minutes was defined as one unit.
# The contaminated phosphatase activities concerning Aspergillus melleus and Streptomyces murinus were measured. In Aspergillus melleus, the contamination activity was observed. On the other hand, in Streptomyces murinus, the phosphatase activity was not observed.
# Substrate specificity [2] = type: biochemical
# Substrate specificity [3] = type: biochemical; remark: listed apart in the source
# [4] = Feasibility test 1: nuclease and deaminase treatment of yeast lysate carried out independently; conditions: after nuclease treatment; deaminase at 50° C., pH 6, 5 hours
# Procedure: In test 1, similar to the current production method, treatment with nuclease and treatment with deaminase were carried out independently. Specifically, the treatment was carried out by the following procedure and the IMP conversion rate was calculated. Firstly, nuclease “AMANO” G (Amano Enzyme Inc., 0.1% w/w yeast solid) was added to yeast lysate (YL-15, 0.2%) and they were reacted with each other under the conditions at a temperature of 70° C. and pH 5 for 3 hours. Then, “Deamizyme (50,000 u/mg product) (trade name of Amano Enzyme Inc., 0.01 to 0.04% w/w yeast solid)” that is an AMP deaminase agent derived from the test enzyme (Aspergillus melleus), or a crude enzyme solution prepared from Streptomyces murinus was added and reacted with each other under the conditions at a temperature of 50° C. and pH 6 for 5 hours. Then, the reacted product was heat treated, and then subjected to HPLC analysis. Note here that added amount of AMP deaminase derived from Streptomyces murinus was set so that the activity value thereof became the same as that of “Deamizyme (50,000 u/mg product)” (trade name, Amano Enzyme Inc.)
# Substrate specificity [5] = type: biochemical; remark: listed apart in the source
# [6] = IMP conversion reaction (HPLC); type: biochemical; conditions: 1.1% AMP solution, pH 7.0, 50° C., 4 hours
# Procedure: IMP conversion rate by HPLC of AMP deaminase produced by Aspergillus melleus and Streptomyces murinus was examined. Specifically, by using 1/15M phosphate buffer solution (pH 7.0), 1.1% AMP solution was prepared. To 5 ml of 1.1% AMP solution, 0.5 ml of enzyme solution was added and reacted at 50° C. for 4 hours. Thereafter, heat treatment at 100° C. was carried out for 10 minutes, filter filtration (0.45 μm) was carried out, and HPLC analysis was carried out.
# [7] = Chromatofocusing (isoelectric point); type: physicochemical; conditions: 8.12 = main fraction; at least two isozymes
# Procedure: In order to obtain an isoelectric point of AMP deaminase derived from Streptomyces murinus obtained by the above-mentioned method, chromatofocusing was carried out. By using MonoP column (Pharmacia), a starting buffer (Start Buffer) and an elution buffer (Poly buffer 96) were adjusted to pH 4.0 with 0.075M Tris acetate buffer (pH9.3) and with hydrochloric acid, respectively. The final amount was made to 100 ml. Furthermore, Pre-gradient with 3 ml, gradient elution with 30 ml and elution with 30 ml were carried out. From the results, it was thought that at least two isozymes were present (pI 8.12, 7.02), but the isoelectric point of main fraction was 8.12. Various properties, including the isoelectric point obtained from the above-mentioned results, of AMP deaminase derived from Streptomyces murinus, are shown in FIG. 11.
# Substrate specificity [8] = type: biochemical; remark: listed apart in the source
# Description: It is reported that adenosine deaminase derived from Streptomyces aureofaciens has a wide range of substrate property, for example, catalytic ability of AMP (non-patent document 2). Taken this into consideration, in order to confirm whether deaminase derived from Streptomyces murinus obtained in the above-mentioned method is AMP-deaminase or adenosine-deaminase, the substrate specificity was investigated. Note here that the relative activity, when the enzyme activity with respect to 5′ AMP is defined as 100% is represented. […] In particular, the enzyme acted on 5′dAMP, ADP and ATP favorably. […] Furthermore, it was determined that the enzyme was able to be employed preferably in a reaction using 5′dAMP, ADP and ATP as a substrate.
# Then, in the genus Streptomyces in the stored strains of Amano Enzyme Inc., screening of AMP deaminase producing strain was carried out. […] Furthermore, the residual activity was measured when the activity obtained when treatment was not carried out was defined as 100%. […]
# In order to determine whether the deaminase derived from transformant (SAD-1) obtained as mentioned above was AMP deaminase or Adenosine-deaminase, the substrate specificity was investigated. […] Furthermore, it was determined that the enzyme can be preferably used with respect to the reaction using 5′-dAMP, ADP and ATP as a substrate.
molecule,measurement,setting,value
B1,contaminated phosphatase activity,[1],not observed; also recorded: not detected
same,action on substrate 5′-CMP,Substrate specificity [2],did not act on
same,action on substrate 5′-GMP,Substrate specificity [3],did not act on
same,IMP conversion rate compared with AMP deaminase derived from Aspergillus melleus,[4],equivalent
same,action on substrate 5′-UMP,Substrate specificity [5],did not act on
same,IMP conversion rate compared with AMP deaminase produced by Aspergillus melleus,[6],the same level
same,ratio of the side product (hypoxanthine) compared with Aspergillus melleus,[6],smaller
same,isoelectric point (pI),[7],8.12 and 7.02
same,action on adenosine as fraction of the action on 5′-AMP,Substrate specificity [8],1/10
same,action on substrate Adenosine,Substrate specificity [8]; activity with respect to 5′ AMP = 100%,also acted on and weak
